{"source": "paper PMC11844742", "about": "“Structural basis of aquaporin-4 autoantibody binding in neuromyelitis optica” (Science Advances, 2025)", "binders": {"B1": {"name": "Fab186, Fab fragment of patient-derived NMO recombinant antibody rAb186 (Fab, V domains shown)", "VH": "QVQLQESGPGLVKPSQTLPLTCTVSGGYISSGSHQWGWIRQPAGKGLEWIGRIYTSGSTNYNPSLKSRVTISVDTSKNQFSLKLSSVTAADTAVYYCARVNYDLLTGRANFFDPWGQGTPVTVSS", "VL": "EIVLTQSPGTLSLSPGERATLSCRASQSVSSRSVAWYQQKPGQAPRLLIYGASNRATGIPDRFSGSGSGTDFTLTISRLEPEDFVVFYCQQYGSSPLTFGGGTKVEIK", "notes": "heavy chain (HC) of Fab186 in the deposited model PDB 8V9D; light chain (LC) of Fab186 in the deposited model PDB 8V9D; also called rAB186 Fab; source: rAb186 IgG from Expi293F (MabSelect purified), papain cleavage (Pierce Fab kit), Fc removed with Protein A agarose"}, "B2": {"name": "Fab58, Fab fragment of patient-derived NMO recombinant antibody rAb58 (Fab, V domains shown)", "VH": "QVQLVESGGGLVQPGGSLRLSCAASGFTFRGYAMNWVRQAPGKGLEWVASISGSGSITQYADSAKGRFTITRDNSKSTLYAHVSSLRADDTAVYYCAKGDYVFDYWGQGTLVTVSS", "VL": "DIQMTQSPSALSASVGDTVTITCRASQSIRSWLAWYQQKPGKAPKLLIYKASDLQSGVPSRFSGSGSGTDFTLTISGLQPDDFATYYCQHYNSYPYTFGQGTKVEIR", "notes": "heavy chain (HC) of Fab58 in the deposited model PDB 8V91; light chain (LC) of Fab58 in the deposited model PDB 8V91; also called rAB58 Fab; source: rAb58 IgG from Expi293F (MabSelect purified), papain cleavage (Pierce Fab kit), Fc removed with Protein A agarose"}}, "settings_in_all_cases": "both partners purified", "key": {"[1]": {"molecular_target": "T1, human aquaporin-4 (AQP4) isoform M1, full length, tetramer in detergent (human, UniProt P55087-1)", "T1 construct": "aquaporin-4, human, isoform M1, full length (residues 1 to 323); synthesized gene in pPICZ; The purification protocol says the N-terminal tag was cleaved by thrombin; also called AQP4 M1; AQP4 in detergent; source: Pichia pastoris X-33 (strain MG3), purified in DDM (Ni-NTA, thrombin cleavage, cobalt resin, SEC Superdex 200); not shown: 8xHis, N-terminal, cleaved", "T1 sequence (P55087 whole entry, the tested form may be a part, canonical isoform)": "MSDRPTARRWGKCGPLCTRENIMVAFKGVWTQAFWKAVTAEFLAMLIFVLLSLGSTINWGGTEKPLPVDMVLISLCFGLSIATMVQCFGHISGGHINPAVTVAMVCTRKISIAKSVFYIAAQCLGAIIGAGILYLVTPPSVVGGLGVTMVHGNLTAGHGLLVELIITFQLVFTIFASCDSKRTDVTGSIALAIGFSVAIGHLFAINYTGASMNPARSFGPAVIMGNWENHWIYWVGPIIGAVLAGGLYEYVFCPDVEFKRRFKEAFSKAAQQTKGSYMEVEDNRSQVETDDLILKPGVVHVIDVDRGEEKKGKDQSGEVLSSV", "test": "cryo-EM structure; AQP4 in detergent, 18 uM, mixed with ~75 uM Fab186; ~12 uM AQP4 on grids; no symmetry imposed; 2.9 A"}, "[2]": {"molecular_target": "T2, human aquaporin-4 (AQP4) isoform M1, full length, tetramer in MSP1E3D1 lipid nanodiscs (human, UniProt P55087-1)", "T2 construct": "aquaporin-4, human, isoform M1, full length (residues 1 to 323); synthesized gene in pPICZ; a thrombin cleavage site lies between the tags and the protein; Homo-tetramer embedded in a nanodisc (soybean polar lipids, MSP1E3D1); for BLI the MSP 1E3D1 was biotinylated; also called AQP4 M1; M1 tetramer; not shown: 8xHis, N-terminal, kept", "T2 sequence (P55087 whole entry, the tested form may be a part, canonical isoform)": "as above", "test": "cryo-EM 2D classification; AQP4 M1 in nanodiscs mixed with 30-fold molar excess of Fab186; severe orientation bias, no high-resolution map"}, "[3]": {"molecular_target": "T2, human aquaporin-4 (AQP4) isoform M1, …", "test": "cryo-EM structure; AQP4 M1 in nanodiscs (0.3 uM) mixed with ~5-fold molar excess of Fab58; no symmetry imposed; 2.5 A"}}, "note": "“And” between values parts separate entries of the source, which are not always exact repeats. Equal entries are not always repeated."}
{"binder": "B1", "values": [{"measurement": "stoichiometry N", "setting": "[1]", "result": "≤ 4 Fab per AQP4 tetramer and 3 Fab per AQP4 tetramer"}, {"measurement": "stoichiometry N", "setting": "[2]", "result": 4, "unit": "Fab per AQP4 tetramer"}]}
{"binder": "B2", "values": [{"measurement": "stoichiometry N", "setting": "[3]", "result": 1, "unit": "Fab per AQP4 tetramer"}]}
